Data taken from US20240360176.

System: pNaKtide

Src kinase (mouse, endogenous in the liver of C57BL/6J mice)
Src phosphorylation in mouse liver, ratio pSrc/pSrc+cSrc by Western blot: Src phosphorylation peaked in the HFD groups at week 20, with paucity on pSrc peak in the pNaKtide and Exercise groups
